Data set [1] deals with T1, RAD52 (Homo sapiens) (UniProt P43351).
T1 sequence: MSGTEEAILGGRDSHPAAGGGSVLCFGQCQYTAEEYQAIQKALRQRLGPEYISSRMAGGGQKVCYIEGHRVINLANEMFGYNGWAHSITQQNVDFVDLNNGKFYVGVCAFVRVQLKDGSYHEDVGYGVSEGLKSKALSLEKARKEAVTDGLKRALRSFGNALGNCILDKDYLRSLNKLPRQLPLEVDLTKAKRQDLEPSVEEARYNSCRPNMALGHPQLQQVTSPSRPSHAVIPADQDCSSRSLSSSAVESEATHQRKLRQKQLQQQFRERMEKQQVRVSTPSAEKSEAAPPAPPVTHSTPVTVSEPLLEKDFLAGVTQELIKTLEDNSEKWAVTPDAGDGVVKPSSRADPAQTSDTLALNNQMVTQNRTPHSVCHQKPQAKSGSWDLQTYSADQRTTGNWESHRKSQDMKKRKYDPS
The data set is described as follows: single-molecule FRET. The following applies: amino modifier C6 dT at last dT of gap.

Data set [2] addresses RAD52 Y104pCMF Y104pCMF (Homo sapiens) (UniProt P43351). Put plainly: single-molecule FRET. The following applies: amino modifier C6 dT at last dT of gap.
For data set [3] the target is unchanged. Put plainly: FRET titration. The following applies: scale: nM protein at maximum FRET.
For data set [4], the target named is T1, RAD52 (Homo sapiens). The data set is described as follows: competition.

In the case of “TATGCTCTAAGCCATCCATGTATTTTTTTTTTTTTTTTTTTTTTTTTTTTCCCTAGATACCAGTAGATTCGGAAA / TTTCCGAATCTACTGGTATCTAGGG / TACATGGATGGCTTAGAGCATA [gapped DNA, 28-nt (dT) gap]”, the binding signal (% molecules in high FRET (wrapped) state) is 9.47 with RAD52 (Homo sapiens) [1] and 43.5 in data set [2].
In data set [3], “TTTTTTTTTTTTTTTTTTTTTTTTTTTTTT [Cy5-(dT)30-Cy3]” gave a binding signal of 5.
Turning to linearized PhiX174 RFI dsDNA, the binding signal (% ssDNA released at 150 nM nt dsDNA) with RAD52 (Homo sapiens) [4] was 95.1.

Source of the values: publication PMC3160658.
